US20250154231A1

What was measured:
Experiment in all cases: cell-based or functional assay
[1] = target: SARS-CoV-2 spike (S) protein, Omicron BA.1 (SARS-CoV-2) (UniProt P0DTC2)
[2] = target: SARS-CoV-2 spike (S) protein, Omicron BA.1.1 (SARS-CoV-2) (UniProt P0DTC2)
[3] = target: SARS-CoV-2 spike (S) protein, Omicron BA.2 (SARS-CoV-2) (UniProt P0DTC2)
[4] = target: SARS-CoV-2 spike (S) protein, Victoria strain (SARS-CoV-2) (UniProt P0DTC2)
[5] = target: SARS-CoV-2 spike (S) protein, Omicron BA.3 (SARS-CoV-2) (UniProt P0DTC2)
[6] = target: SARS-CoV-2 spike (S) protein, Omicron BA.4.6 (SARS-CoV-2) (UniProt P0DTC2)
[7] = target: SARS-CoV-2 spike (S) protein, Omicron BA.4/5 (SARS-CoV-2) (UniProt P0DTC2)
[8] = target: SARS-CoV-2 spike (S) protein, Omicron BA.2.75 (SARS-CoV-2) (UniProt P0DTC2)
[9] = target: SARS-CoV-2 spike (S) protein, Omicron BA.1 (SARS-CoV-2) (UniProt P0DTC2); remark: listed apart in the source
[10] = target: SARS-CoV-2 spike (S) protein, Omicron BA.1.1 (SARS-CoV-2) (UniProt P0DTC2); remark: listed apart in the source
[11] = target: SARS-CoV-2 spike (S) protein, Omicron BA.2 (SARS-CoV-2) (UniProt P0DTC2); remark: listed apart in the source
[12] = target: SARS-CoV-2 spike (S) protein, Victoria strain (SARS-CoV-2) (UniProt P0DTC2); remark: listed apart in the source
[13] = target: SARS-CoV-2 spike (S) protein, Omicron BA.3 (SARS-CoV-2) (UniProt P0DTC2); remark: listed apart in the source
[14] = target: SARS-CoV-2 spike (S) protein, Omicron BA.4/5 (SARS-CoV-2) (UniProt P0DTC2); remark: listed apart in the source

Ly-CoV1404 (antibody)
IC50, pseudoviral neutralization [1]: 2 ng/mL | IC50, pseudoviral neutralization [2]: 1 ng/mL | IC50, pseudoviral neutralization [3]: 1 ng/mL | IC50, pseudoviral neutralization [4]: 1 ng/mL | IC50, pseudoviral neutralization [5]: 2 ng/mL | IC50, pseudoviral neutralization [6]: 1 ng/mL | IC50, pseudoviral neutralization [7]: 2 ng/mL | pseudovirus neutralisation IC50 [8]: 2 ng/mL | pseudovirus neutralisation IC50 [9]: 2 ng/mL | pseudovirus neutralisation IC50 [10]: 1 ng/mL | pseudovirus neutralisation IC50 [11]: 1 ng/mL | pseudovirus neutralisation IC50 [12]: 1 ng/mL | pseudovirus neutralisation IC50 [13]: 2 ng/mL | pseudovirus neutralisation IC50 [14]: 2 ng/mL
